Results taken from US20210079110A1 (SCHOOL JURIDICAL PERSON THE KITASATO INSTITUTE, published 2021).

Columns and labels:
SEQ ID NO 64 = target: T1, SEQ ID NO 64; test: peptide array of 15-mers, antibody diluted to 1/100 and 1/500
T1 construct: 15-residue KK-LC-1 peptide of the peptide array
T1 peptide: SMVENKLVELEHTLL
Text: (§1) An antigen of the monoclonal antibody produced by the hybridoma cell line (accession number: NITE BP-02527) was identified by epitope mapping. Specifically, first, 73 types of 15-amino acid residue peptides in which a position on an N-terminus side was shifted by one amino acid residue each were synthesized based on the amino acid sequence of the KK-LC-1 protein to produce a peptide array. Amino acid sequences of the 73 types of peptides are shown in SEQ ID NOs: 13 to 85, respectively.
(§2) Subsequently, the peptide array was reacted with a monoclonal antibody to identify peptides having reactivity. The monoclonal antibody was diluted to 1/100 and 1/500 and the resultants were each reacted.

SEQ ID NO 69 = target: T2, SEQ ID NO 69; test: as above
T2 construct: 15-residue KK-LC-1 peptide of the peptide array
T2 peptide: KLVELEHTLLSKGFR
Text: as §1, §2

SEQ ID NO 70 = target: T3, SEQ ID NO 70; test: as above
T3 construct: 15-residue KK-LC-1 peptide of the peptide array
T3 peptide: LVELEHTLLSKGFRG
Text: as §1, §2

SEQ ID NO 66 = target: T4, SEQ ID NO 66; test: as above
T4 construct: 15-residue KK-LC-1 peptide of the peptide array
T4 peptide: VENKLVELEHTLLSK
Text: as §1, §2

[1] = target: T5, LSMVENKLVELEHTL (SEQ ID NO: 63); test: as above
T5 construct: 15-residue KK-LC-1 peptide of the peptide array
T5 peptide: LSMVENKLVELEHTL
Text: as §1, §2

[2] = target: T6, VELEHTLLSKGFRGA (SEQ ID NO: 71); test: as above
T6 construct: 15-residue KK-LC-1 peptide of the peptide array
T6 peptide: VELEHTLLSKGFRGA
Text: as §1, §2

SEQ ID NO 65 = target: T7, SEQ ID NO 65; test: as above
T7 construct: 15-residue KK-LC-1 peptide of the peptide array
T7 peptide: MVENKLVELEHTLLS
Text: as §1, §2

SEQ ID NO 67 = target: T8, SEQ ID NO 67; test: as above
T8 construct: 15-residue KK-LC-1 peptide of the peptide array
T8 peptide: ENKLVELEHTLLSKG
Text: as §1, §2

SEQ ID NO 68 = target: T9, SEQ ID NO 68; test: as above
T9 construct: 15-residue KK-LC-1 peptide of the peptide array
T9 peptide: NKLVELEHTLLSKGF
Text: as §1, §2

[3] = target: T10, peptide having the amino acid sequence set forth in SEQ ID NO: 1; test: ELISA on immobilized peptide (Experimental Example 2) and absorption operation (Experimental Example 4)
T10 construct: Immunogen; immobilized on a 96-well plate in the ELISA and used for the absorption operation at 0.05 mg/mL; also called immunized peptide; peptide used for the immunization of the mouse
T10 peptide: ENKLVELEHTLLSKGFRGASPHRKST
Experimental: Reactivity of a monoclonal antibody was confirmed by an ELISA method using an immunized peptide as an antigen. Specifically, first, the peptide having the amino acid sequence set forth in SEQ ID NO: 1 was immobilized on a 96-well plate. Moreover, as a control, a 96-well plate in which only blocking was performed without immobilizing the peptide was used. A skim milk solution was used for the blocking.
Subsequently, the 96-well plate was blocked, a culture supernatant of each established hybridoma cell line was added thereto, and a reaction was performed. Moreover, for comparison, wells reacted with a normal mouse serum were also prepared. Next, the unreacted monoclonal antibody was washed off, the resultant was reacted with an anti-mouse secondary antibody, and a chromogenic substrate was added to develop color. Then, absorbance of each well was measured using a plate reader.
For the absorption operation of the monoclonal antibody, the peptide having the amino acid sequence set forth in SEQ ID NO: 1 was used at a final concentration of 0.05 mg/mL. Moreover, the absorption operation was performed overnight at 4° C. [0090] (a) to (d) of FIG. 3 are photographs showing results of immunohistochemical staining. In each case, a magnification was 200 times. […]

[4] = target: T11, Kitakyushu lung cancer antigen-1 (KK-LC-1) protein (human (tissue slices of patients), UniProt Q5H943 1-113); test: immunohistochemical staining of formaldehyde-fixed tissue slices
T11 construct: Endogenous protein in formaldehyde-fixed tissue slices (testis, seminoma, gastric tissue) stained by immunohistochemistry; also called NP_001017978.1
T11 sequence: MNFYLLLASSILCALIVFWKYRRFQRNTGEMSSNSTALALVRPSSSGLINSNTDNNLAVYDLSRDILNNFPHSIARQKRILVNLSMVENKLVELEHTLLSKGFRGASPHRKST
Text: Tissue slices of a normal region and a tumor region of a patient suffering from a testicular tumor and tissue slices of a normal region and a tumor region in a gastric tissue of a patient suffering from a gastric cancer, which are fixed with formaldehyde, were stained by using the produced monoclonal antibodies.

Measured: binding result

B1: monoclonal antibody produced by the hybridoma cell line having an accession number of NITE BP-02527 (antibody, V domains shown)
VH: EVQLQQSGPELVKPGASVKMSCKTSGYTSTEYTMHWVKQSHGQSLEWIGVIYPNNGDTSYNQKFRGKATLTVDKSSNTAYMELRSLTSEDSAVYYCARLGWQGFANWGQGTLVTVSA
VL: DIVMTQAAPSVPVTPGESVSISCRSSKSLLHSNGNTFLYWFLQRPGQSPQLLIYRMSNLASGVPDRFSGSGSGTAFTLRISRVEAEDVGVYYCMQHLEYPLTFGAGTKLELK
notes: Mouse hybridoma antibody, used as culture supernatant; also called 34B3; 277 34B3 20170123
binds: all assays above
